According to doi:10.1101/2024.09.06.611148 (bioRxiv, 2024):

Target: Alexa-647-labelled actin (UniProt P68135 1-377, Alexa-647 (Monolith NT Protein Labelling Kit RED-NHS))
Assay: MST

B1: recombinant HYC2 (GST-HYC2 or HYC2-6XHis) (natural protein)
chain: MDFSVKPSGGSPSPSSSTSSSTPHRFKSVTTPTATAAAVSGFSPSAAADRDPMHSWWESVSKQRSRILSLSSLLSGDSHFEDGDVTPISSLADSDRPALSLLSSRAAYSLISNSLCNPASGSGSDPLCQWLYETYLSSDPPLRLVVLSFFPLLVGMYLSRIHSSDSTSLPSLSGFEAVLLAIYAAEVKARAGKPILVHIPDLSQPSLYHTPRNGVDKSRDSNPTASVGVLSPQLEPQIAVKSTKRASIVGVGLQCYFKEISQMPAWSKLEFCKFSASWAGQDCDCKEKIDEDEDKVLALTNGFGDSSSFNGSSGRSLEIEEDFDRLAIRENEEQLSSNGGGGGVGRGVRIPLPWELFQPTLRILGHCLLSPLNTEDVKDAASNAVRSLYARASHDLNPQAILATRSLVNLDTSARTSGKTVAAETVNGSSNVNTPSKAKKPEILLASK
Work on B1 yielded a Kd of 330 ± 80 nM.
